These results are taken from PMC6255209 (Proceedings of the National Academy of Sciences of the …, 2018).

For assay [1], the target named is YFP-β3 (UniProt P54287). In words: FRET or BRET. On the technique in general: BRET reads energy transfer from a luciferase to a nearby fluorophore.
Assay [2] concerns the target YFP-β3 (UniProt P54287 1-484). The assay can be described thus: FRET or BRET.

YFP-β3 (UniProt P54287), sequence (P54287 whole entry): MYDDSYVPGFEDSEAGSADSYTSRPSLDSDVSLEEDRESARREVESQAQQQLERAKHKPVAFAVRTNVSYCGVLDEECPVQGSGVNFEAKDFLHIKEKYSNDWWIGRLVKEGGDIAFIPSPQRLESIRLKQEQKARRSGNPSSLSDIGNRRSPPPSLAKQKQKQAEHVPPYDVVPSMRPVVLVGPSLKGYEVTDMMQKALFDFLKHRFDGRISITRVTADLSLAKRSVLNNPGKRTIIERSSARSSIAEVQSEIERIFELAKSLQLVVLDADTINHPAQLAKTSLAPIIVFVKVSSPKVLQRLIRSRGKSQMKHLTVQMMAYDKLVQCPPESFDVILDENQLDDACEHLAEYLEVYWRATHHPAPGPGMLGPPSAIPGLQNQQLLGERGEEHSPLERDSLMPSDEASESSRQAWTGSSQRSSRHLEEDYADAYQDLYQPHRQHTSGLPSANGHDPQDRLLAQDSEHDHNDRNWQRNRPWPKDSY
YFP-β3 (UniProt P54287 1-484), sequence (P54287 whole entry): as above

With “CFP-Rad[R208A/L235A] (from UniProt P55042 1-308) (natural protein)”, the fold decrease in affinity compared with CFP-Rad in assay [1] is 8 fold. “CFP-Rad (from UniProt P55042 1-308) (natural protein)”: the FRET efficiency in assay [1] turned out to be 0.123.

B1: CFP-Rem[R200A/L227A] (natural protein, UniProt O35929 1-297, looked up)
chain: MTLNTQQEAKTTLRRRASTPLPLSSRGHQPGRLCTAPSAPSQHPRLGQSVSLNPPVRKPSPAQDGWSSESSDSEGSWEALYRVVLLGDPGVGKTSLASLFAEKQDRDPHEQLGGVYERTLSVDGEDTTLVVMDTWEAEKLDESWCQESCLQAGSAYVIVYSIADRSSFESASELRIQLRRTHQANHVPIILVGNKADLAACREVSVEEGRACAVVFDCKFIETSATAQHNVTELFEGVVRQLRLRRQDNAAPETPSPRRRASLGQRARRFLARLTARSARRRALKARSKSCHNLAVL
With B1, the “fold decrease in affinity compared with WT Rem” value in assay [2] stood at 5 fold.
